Data published in patent US20220193232A1.
Blank lines part the entries; values can stand above or below the substance they belong to.

Columns and labels:
Fc-receptors = test: cell-based or functional assay
[1] = biological target: kappa myeloma antigen (KMA) (human); test: cell-based or functional assay

- enrichment of CAR expressing T-cells in culture with PBMC alone (% of CD3+ T-cells) (Fc-receptors): 28
Substance: KM.CAR-hCH2CH3-28z (receptor)

- CAR expression (GFP) in culture in the presence of JJN3 [1]: 5%
- expansion of CAR T-cell culture in the presence of JJN3 [1]: 8 fold
Substance: KM.CAR_8a_28TM_41BBz (from UniProt P01732 138-182; P10747 153-179; Q07011 214-255) (receptor)

- CAR expression (GFP) in culture with JJN3 [1]: 17%
- expansion of CAR T-cell culture with JJN3 [1]: 5 fold
Substance: KM.CAR_h_28TM_41BBz (from UniProt P10747 153-179; Q07011 214-255) (receptor)
